From the nanobody polyreactivity screen of Harvey et al. (2022)

Test: yeast display, Sf9 membrane polyspecificity reagent, FACS + sequencing; frameworks hold sequencing errors
In short: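 Using colony PCR, genes from sorted yeast display clones were amplified, then sequenced on MiSeq at 2 × 250 and filtered by CDR length. The clones had been stained with 10% biotinylated, detergent-solubilized Sf9 membrane reagent for 1 hour at 4 °C and sorted by FACS into low and high (top ~1%) gates on anti-HA and streptavidin fluorescence. Polyreactivity labels come from the gate of origin.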
With “QVQLVESGGGLVKAGGSLRLSCAASGRNFKTYAMGWYRQAPGKERELVAAISRDGRTYYADSVKGRFTISRDNAKNTVYLQMNSLKPEDTAVYFCNKRSYRKGDYWGQGTQVTVSS” the “polyreactivity (PSR sort gate)” value was “low polyreactivity”. With “QVQLVESGGGLVQEGGSLRLSCDASAITIGRYAMGWYRQAPGKERELVAAISWSGGSTYFADSVKGRFTISRDNAKNTVYLHMNSLKPEDTAVYYCATRIRTVAYNYWGQGTQVTVSS” the “polyreactivity (PSR sort gate)” value was “high polyreactivity”. With “QVQLVESGGGLVQAGGSLRLSCAASGRIFNRNAMGWYRQAPGKERELVAAITGSGGITYYADSVKGRFTISRDNAKNTVYLQMNSLKPEDTAVYYCAARAKFLSLPTYDYWGQGTQVTVSS” the “polyreactivity (PSR sort gate)” value was “high polyreactivity”. For “QVQLVESGGGLVQAGGSLRLSCAASGSIFNRNAMGWYRQAPGKERELVAAITGRGGSTYYADSVKGRFTISRDNAKNTVYLQMDSLKPEDTAVYYCAAETLAPRAYYYWGQGTQVTVSS”, the “polyreactivity (PSR sort gate)” value was “low polyreactivity”. In the case of “QVQLVESGGGLVQAGGSLRLSCAASGSTFGSYAMGWYRQAPGKERELVAVITGGGDTNYADSVKGRFTISRDNAKNTVYLQMNSLKPEDTAVYYCAAEGSFYRYHVGSDYWGQGTQLTVSS”, the “polyreactivity (PSR sort gate)” value is reported as “low polyreactivity”. With “QVQLVESGGGLVQAGGSLRLSCAASGSIINFNAMGWYRQQPGKERELDARINQGGGSTYYADSVKGRFTISRDNAKNTVYLQMNSLKPEDTAVYYCAAVRYVLRSPARYGYWGQGTQVTVSS” the “polyreactivity (PSR sort gate)” value was “low polyreactivity”. With “QVQLVESRGGLVQAGGSLRLSCAASGFIFTRYVMGWYRQAPGKERELVAGISTRGARTYYADSVKGRFTISRDNAKNTVYLQIHSLTPEDTAVYYCNKDWSRGWNYEYDYWGQGTQVTVSS” the “polyreactivity (PSR sort gate)” value was “high polyreactivity”. For “QVQLVESGGGLVQAGGSLRLSCAASGGIFVRYAMGWYRQAPGKERELVAAISSSGDRTYYADSVKGRFTISRDNAKNTVYLQMHSLKPEDTAVYYCNADRGHDKVDYWGQATQVTVSS”, the “polyreactivity (PSR sort gate)” value was “low polyreactivity”. With “QVQLVESGGGLVQAGGSLRLSCAASGSIFGKYAMGWYRQAPGKERELVAAISERTGRTYYADSVKGRFTISRDNAKNTVYLQMNSLKPEDTAVYYCNVVPLDSGWSTYGYDYWGQGTQVTVSS” the “polyreactivity (PSR sort gate)” value was “high polyreactivity”. For “QVHLVESGGGLVQAGGSLRLSCAASGSIFGYNAMGWYRQAPGKERELVAAISLTTGSTYYADSVKGRFTISRDNAKNTVYLQMNSLKPEDTAVYYCAIRGFYRGYGQAYGYWGQGTLVTVSS”, the “polyreactivity (PSR sort gate)” value was “high polyreactivity”. For “QVQLVESGGGLVQAGVSLRLSCAASGSIFDSNAMGWYRQAPGKERELVATISSVGSTNYADSVKGRFTISRDNAKNTVYLQMNSLKPEDTAVYYCARVVDAQGYYSAASGGYYWGQGTQVSVSS”, the “polyreactivity (PSR sort gate)” value was “low polyreactivity”. For “QVQLVESGGGLVQAGGSLRLSCAASGRILYPYAMGWYRQAPGTERELVAAITFRGGNTYYADSVKGRFTISRDNAKNTVYLQMNSLKPEDTAVYYCAKRGGYWHKFDYWGQGTQVTVSS”, the “polyreactivity (PSR sort gate)” value was “high polyreactivity”. For “QVQLVESGGGLVQAGGSLRLSCAASGRTFSGNAMGWYRQAPGKERELVAAITSGSSTYYADSVKGRFTISRDNAKNTVYLQMNSLKPEDTAVYYCAARSVYGSSFLSYGYWGQGTQVTVSS”, the “polyreactivity (PSR sort gate)” value was “high polyreactivity”. In the case of “QVQLVESGGGLVQAGGSLRLSCAASGSTFVDYAMGWYRQAPGKERELVAGINGSGGSTYYADSVKGRFTISRDNAKNTVYLQMNSLKPEDTAVYYCAKDGSNRLALPAWDYNYWGQGTQVTVSS”, the “polyreactivity (PSR sort gate)” value is reported as “low polyreactivity”. In the case of “QVQLVESGGGLVQAGGSLRLSCAASGFNFDYYAMGWYRPAPGKVRELVAAITSRGGSTYYADSVKGRFTISRDNAKTTVYLQMNILKPEDTAVYYCSALRRSAEYNYWGQGTQVTVSS”, the “polyreactivity (PSR sort gate)” value is reported as “high polyreactivity”. For “QVQLVESGGGLVQAGGSLRLSCAATGITFYINAMAWYIQAPGKESEFVAAIDFNTGDTYYADSVKGRFTISRDTSKNTVYLEMNRLKPEDTAVYYCAADVGYWYGYYYIYDFWAQGTQVTVSS”, the “polyreactivity (PSR sort gate)” value was “high polyreactivity”. In the case of “QVQLVESGGGLVQAGGSLRLSCAASGIIFRNYAMGWYRQAPGKERELVAAISWTGDSTYYADSVKGRFTISRDNAKNTVYLQMNSLKPEDTAVDYCAAEAYYGLWMDYWGQGTQVTVSS”, the “polyreactivity (PSR sort gate)” value is reported as “low polyreactivity”. In the case of “QVQLVESGGGLVQAGGSLRLSCAASGFAFSYYAMGWYRQAPGKEREFVASIDWSGGSTYYADSVKGRFTISRDNAKNIVYLQMNSLKPEDTAVYYCAAELDYFPGYDYWGQGTQVTVSS”, the “polyreactivity (PSR sort gate)” value is reported as “low polyreactivity”. For “QVHLVESVGGLVQAGGSLRLSCAASGRIFYRNAMGCYRQAPGKERELVAAINTGGDGTYYADSVKGRFTISRDNAKNTVYLQMNSLKPEDTAVYYCAADRSSFYWSHGTVYGYDYWGQGTQVTVSS”, the “polyreactivity (PSR sort gate)” value was “low polyreactivity”. For “QVQLVESGGGLVQAGGSLRLSCASSGSIINRYAMGGYRQAPGKERELVAAITQSGGRTYYADSVKGRFTISRDNAKNTVYLQMNSLKPEDTAVYYCNAVRWYLYDYWGQGTQVTVSS”, the “polyreactivity (PSR sort gate)” value was “high polyreactivity”. For “QVQLVESGGGLVQAGGSLRLSCAASGRTFVRYAMGWYRQAPGKERELVARITSRGTSTYYADSVKGRFTISRDNAKNTVYLQMNSLKPEDTAVYYCNKVSTFREKSRYDYWGQGTQVTVSS”, the “polyreactivity (PSR sort gate)” value was “low polyreactivity”.
